Laboratory results: publication PMC6715736

Molecular target: T1, His6-RacR (Escherichia coli JM83 (Rac prophage)) (UniProt P76062)
T1 sequence: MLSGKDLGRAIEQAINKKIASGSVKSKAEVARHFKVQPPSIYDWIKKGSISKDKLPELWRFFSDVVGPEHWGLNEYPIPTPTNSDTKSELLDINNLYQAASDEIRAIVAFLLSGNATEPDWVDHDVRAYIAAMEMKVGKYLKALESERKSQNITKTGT
Experiment: EMSA
Conditions: EMSA: 10 mM Tris-HCl pH 8.0, 1 mM EDTA, 0.1 M NaCl, 0.1 mM DTT, 5% glycerol, 10 ug/mL BSA, 50 ug/mL poly(dI-C), 28 C 40 min; 6% PAGE in 0.5x TBE

GGTTCATCTCGGCTCCTGCTGCGGCGGTTGTCTTCGCGGATTTTGAAATAGAGATTTGTCAGATACGTCATTACGGCAATGATGATACCCACCAGCACGCCGATAGCGTTCCACTGCTCGGGGCTGTAGGCATTCAACATGCCGTTTAGGATGCTCCCGGCTGAAGCGCCATAGGCAGCACCAGTGGTTAGTTTGTCCATGCGATACATACTCTCACCTCGCTTTGTGCGAGTGCTGTTGCT (double strand) [lysN* probe]
binding: binds
